Laboratory results from patent publication US20060099671.

Tested on: human plasminogen
Sequence (chain, as listed by the source): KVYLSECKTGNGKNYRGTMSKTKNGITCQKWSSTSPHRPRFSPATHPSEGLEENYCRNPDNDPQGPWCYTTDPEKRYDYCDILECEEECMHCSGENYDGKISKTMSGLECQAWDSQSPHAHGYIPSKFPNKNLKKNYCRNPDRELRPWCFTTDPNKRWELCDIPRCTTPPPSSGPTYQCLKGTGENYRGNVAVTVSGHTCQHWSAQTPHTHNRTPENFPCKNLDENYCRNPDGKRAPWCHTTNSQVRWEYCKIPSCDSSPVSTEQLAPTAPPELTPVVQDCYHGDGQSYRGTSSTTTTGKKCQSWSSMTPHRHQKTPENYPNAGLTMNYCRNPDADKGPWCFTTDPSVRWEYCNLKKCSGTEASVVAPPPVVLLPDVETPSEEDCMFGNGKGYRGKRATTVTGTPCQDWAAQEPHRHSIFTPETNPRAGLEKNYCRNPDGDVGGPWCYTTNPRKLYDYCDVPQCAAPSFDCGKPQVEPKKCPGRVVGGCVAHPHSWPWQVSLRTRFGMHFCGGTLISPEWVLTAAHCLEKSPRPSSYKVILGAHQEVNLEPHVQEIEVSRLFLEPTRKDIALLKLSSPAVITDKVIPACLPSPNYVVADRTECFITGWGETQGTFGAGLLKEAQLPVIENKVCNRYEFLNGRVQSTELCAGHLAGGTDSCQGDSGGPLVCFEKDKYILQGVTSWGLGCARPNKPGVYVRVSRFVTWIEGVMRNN

| Substance | conversion of plasminogen to plasmin (Coomassie-stained reduced polyacrylamide gels) | production of angiostatin (western blot) |
| --- | --- | --- |
| urokinase-type plasminogen activator (u-PA) | The complete conversion of plasminogen to plasmin was confirmed | incubation of plasminogen (0.2 µM) with u-PA (0.2 nM), t-PA (1.0 nM), or streptokinase (8.0 nM) with 100 µM N-acetyl-L-cysteine resulted in the production of angiostatin |
| tissue-type plasminogen activator (t-PA) |  | incubation of plasminogen (0.2 µM) with u-PA (0.2 nM), t-PA (1.0 nM), or streptokinase (8.0 nM) with 100 µM N-acetyl-L-cysteine resulted in the production of angiostatin |
